The values that follow are results of earlier work, collected in PMC11858487.

For orientation: Kd means the equilibrium constant for the complex coming apart.

In the data set the target is EGFR (Homo sapiens) (UniProt P00533).

For the substance [99mTc]Tc-SYPIPDT-ECG-TAMRA, the Kd is 76.5 nM.
